The target of this assay is T1, myc-tagged PSD95 (UniProt P31016 1-724).
T1 construct: also called PSD-95 myc; PSD-95-myc; not shown: myc tag
Kind of assay: co-immunoprecipitation from HEK 293T cells stably expressing Flag-tagged GPR10, transfected with myc-tagged PSD95. As to the method: Forty-eight hours after transfection, cells were washed once in PBS and lysed with IP buffer (1% triton X-100, 25 mM Tris, pH 7.4, 50 mM NaCl, 5 mM EDTA, 5 mM EGTA, 0.1 mM phenylmethylsulphonyl fluoride (PMSF), aprotinin, leupeptin, and bacitracin). Immunoprecipitation was performed using 2 μg anti-Flag M2 antibody (Sigma) or 1 μg anti-myc antibody (Roche) followed by 25 μl protein G-agarose (Sigma). Immunoprecipitation was carried out overnight at 4° C. Immunoprecipitated proteins were resolved on SDS-PAGE, transferred to PVDF membrane. Western blotting was performed to detect GRIP using anti-GRIP antibody (1:1000). ABP-myc, PSD-95-myc, and PICK1-myc were detected using the monoclonal anti-myc antibody (1:500, Clontech).
To determine whether GPR10 interacts specifically with AMPA receptor interacting proteins, myc-tagged ABP and myc-tagged PSD95 were transfected into cell lines expressing wild type and mutant Flag-tagged GPR10.

T1 sequence (P31016 whole entry): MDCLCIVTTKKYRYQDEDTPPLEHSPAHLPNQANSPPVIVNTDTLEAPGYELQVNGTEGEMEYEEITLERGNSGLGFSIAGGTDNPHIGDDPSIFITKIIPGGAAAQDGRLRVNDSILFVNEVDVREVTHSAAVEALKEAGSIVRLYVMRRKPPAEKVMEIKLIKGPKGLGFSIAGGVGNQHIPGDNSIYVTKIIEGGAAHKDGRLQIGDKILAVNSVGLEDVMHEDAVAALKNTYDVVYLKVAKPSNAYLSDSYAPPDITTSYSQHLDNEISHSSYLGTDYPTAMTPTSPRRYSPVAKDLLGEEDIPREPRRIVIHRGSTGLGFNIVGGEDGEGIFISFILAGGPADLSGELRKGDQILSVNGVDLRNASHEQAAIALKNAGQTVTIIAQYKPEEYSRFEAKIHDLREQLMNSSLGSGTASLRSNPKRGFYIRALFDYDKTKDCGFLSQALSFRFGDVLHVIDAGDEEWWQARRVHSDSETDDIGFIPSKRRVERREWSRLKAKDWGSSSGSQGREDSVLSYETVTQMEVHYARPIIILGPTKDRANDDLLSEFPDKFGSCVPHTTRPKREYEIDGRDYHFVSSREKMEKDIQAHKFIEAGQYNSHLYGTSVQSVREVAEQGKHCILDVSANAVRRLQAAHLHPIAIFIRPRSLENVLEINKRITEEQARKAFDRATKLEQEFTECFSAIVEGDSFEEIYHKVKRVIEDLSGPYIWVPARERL

B1: Flag-tagged GPR10 (wild type) (receptor, UniProt P49683 1-370, looked up)
chain: MASSTTRGPRVSDLFSGLPPAVTTPANQSAEASAGNGSVAGADAPAVTPFQSLQLVHQLKGLIVLLYSVVVVVGLVGNCLLVLVIARVRRLHNVTNFLIGNLALSDVLMCTACVPLTLAYAFEPRGWVFGGGLCHLVFFLQPVTVYVSVFTLTTIAVDRYVVLVHPLRRRISLRLSAYAVLAIWALSAVLALPAAVHTYHVELKPHDVRLCEEFWGSQERQRQLYAWGLLLVTYLLPLLVILLSYVRVSVKLRNRVVPGCVTQSQADWDRARRRRTFCLLVVIVVVFAVCWLPLHVFNLLRDLDPHAIDPYAFGLVQLLCHWLAMSSACYNPFIYAWLHDSFREELRKLLVAWPRKIAPHGQNMTVSVVI
notes: whole, on cells; Expressed in HEK 293T or COS7 cells; immunoprecipitated from Triton lysates with anti-Flag M2; also called Flag GPR10 WT; PrRP receptor; not shown: Flag tag
As to B1, the binding result was “no binding”.

(Values after patent US20020037533A1 (University of California, published 2002).)
